Experiment [1] addresses T1, HER2 protein (coated on ELISA plate) (human, UniProt P04626 23-652, limits assumed).
T1 construct: also called HER2 antigen
The experiment is described as follows: ELISA, periplasmic extract on coated antigen, anti-HA-HRP. From the text:
(§1) FIGS. 4A-4B. FIG. 4A) PBMCs were isolated using Ficoll-Paque method. Then, the RNAs were extracted, cDNA library was generated, genes amplified, and then cloned into pMECS-GG phagemids. The phagemids were used in phage display and the screened candidates were used to infect TG1 bacteria. Colonies were selected, grown, lysed, and the lysates removed. FIG. 4B) The lysates were then used in ELISA to screen for VHHs with the highest affinity to HER2 and with negligible binding to HER1, HER3, and HER4. Bovine serum albumin (BSA) and skim milk were used as controls.
(§2) The next day, each well was washed three times with washing buffer (DPBS+0.1% Tween 20) and then incubated with blocking buffer (2% skimmed milk) for 2 h at RT to block the free binding sites. Next, blocking buffer was replaced with 100 μL of periplasmic extract from above and incubated for 1 h at RT while shaking at 700 rpm. Each well was washed six times with washing buffer (DPBS+0.1% Tween 20) followed by addition of 100 μL HRP Anti-HA tag antibody (1:10000 dilution) and incubation for 1 h at RT while shaking at 700 rpm. Each well was washed again six times, followed by addition of 50 μL 1-Step™ Turbo TMB-ELISA substrate solution at incubation at RT for 15 min (without shaking and at dark). The reaction was stopped by adding 50 μL of stop solution ([…] sulfuric acid) and the plate was read at 450 nm using 630 nm as a reference (450/630 nm).
In general terms: ELISA stands for enzyme-linked immunosorbent assay.

The target of experiment [2] is T2, HER1 (human, UniProt P00533 25-645).
T2 construct: The text says only 'HER1'; also called Recombinant human EGFR protein (Fc Chimera), Abcam ab155726; Fc part of the bought chimera not given
The experiment is described as above.
Description: as §1, §2

Experiment [3] addresses T3, HER3 (human, UniProt P21860 20-643, limits assumed).
T3 construct: also called Recombinant Human ErbB 3 protein, Abcam ab196072
The description is as above.
Description: as §1, §2

Experiment [4] deals with T4, Bovine serum albumin (bovine, UniProt P02769 25-607).
T4 construct: Control antigen; also called BSA
T4 sequence (P02769 25-607 limits assumed): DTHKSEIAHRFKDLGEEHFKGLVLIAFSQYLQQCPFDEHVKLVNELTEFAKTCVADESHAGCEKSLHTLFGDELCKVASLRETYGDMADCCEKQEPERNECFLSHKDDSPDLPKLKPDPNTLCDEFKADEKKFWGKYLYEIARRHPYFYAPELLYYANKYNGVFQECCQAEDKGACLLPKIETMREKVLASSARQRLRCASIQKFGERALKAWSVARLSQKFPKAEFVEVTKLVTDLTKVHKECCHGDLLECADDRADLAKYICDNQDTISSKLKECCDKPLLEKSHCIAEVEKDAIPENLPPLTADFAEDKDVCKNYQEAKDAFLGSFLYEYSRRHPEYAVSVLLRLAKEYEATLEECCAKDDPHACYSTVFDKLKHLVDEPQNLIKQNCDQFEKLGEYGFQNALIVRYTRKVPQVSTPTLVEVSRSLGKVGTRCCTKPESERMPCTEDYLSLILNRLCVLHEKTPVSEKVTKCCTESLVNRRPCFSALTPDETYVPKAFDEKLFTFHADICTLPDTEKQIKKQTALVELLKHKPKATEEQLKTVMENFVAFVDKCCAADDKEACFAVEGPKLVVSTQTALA
The description is as above.
Description: as §1, §2

In experiment [5] the target is T5, Biotinylated Human Her2/ErbB2 Protein, His, Avitag (AcroBiosystem HE2-H82E2) (human, UniProt P04626 23-652, biotinylated (Avitag)).
T5 construct: Bought protein; Loaded on streptavidin sensors for BLI; also called biotinylated HER2; HER2 antigen
The experiment is described as follows: BLI (Octet), biotinylated HER2 on streptavidin sensor. A general note: BLI is a label-free optical method that tracks binding on a fibre tip over time.

Experiment [6] has as its target T6, HER2 on the surface of HER2+ cancer cells (BT474, SKOV-3) (human, UniProt P04626 23-1255).
T6 construct: whole, on cells; also called human epidermal growth factor receptor 2
Kind of experiment: flow cytometry on BT-474 cells (HER2+), 100 nM binding sites. The protocol: (§3) OVASC-1 is an ascites-derived epithelial ovarian cancer cells obtained from a patient with advanced metastatic disease (11, 12). The expressed VHHs were then incubated with HER2⁺ (BT474, JIMT-1, and SKOV-3) and HER2⁻ (MDA-MB-231) cancer cell lines. Approximately 10⁶ cells were counted and washed using DPBS-1% FBS. […] After washing, FITC-conjugated anti-Human IgG or anti-Histag antibody were added and incubated on ice for 60 min. Cells were washed three times and then analyzed using Beckman-Coulter Gallios flow cytometer at Rutgers Flow cytometry core facility.
(§4) In the next step, the ability of the VHHs to recognize and bind to HER2 on the surface of HER2+ cancer cells was evaluated. […] MDA-MB-231 and OVASC-1 (HER2⁻) cancer cells were used as negative controls.
(A flow cytometer gives signals particle by particle.)

Experiment [7] deals with T6, HER2 on the surface of HER2+ cancer …. The experiment is described as follows: flow cytometry on SKOV-3 cells (HER2+), 100 nM binding sites. The protocol: as §3, §4
Experiment [8] concerns the target T5, Biotinylated Human Her2/ErbB2 Protein, …. The experiment is described as follows: BLI (Octet), biotinylated HER2 on streptavidin sensor, VHH 1.875-60 nM.
For experiment [9] the target is unchanged. The experiment is described as above. This is another data set of the same source.
Experiment [10] deals with T6, HER2 on the surface of HER2+ cancer …. Kind of experiment: flow cytometry, SKOV-3 (HER2+) cells, tenfold dilutions 0.001-1000 nM.
Experiment [11] concerns the target T5, Biotinylated Human Her2/ErbB2 Protein, …. The experiment is described as follows: ELISA on HER2, tenfold dilutions 0-1000 nM; the HER2 form is not stated for this ELISA, Table 17 lists only the biotinylated HER2.
Experiment [12] addresses T7, CD16b on neutrophils (human, UniProt O75015 17-200).
T7 construct: whole, on cells; also called neutrophils (CD16b+)
Kind of experiment: flow cytometry on neutrophils (CD16b+). The protocol: For flow cytometry, haNK92 cells (CD16a+) and Neutrophils (CD16b⁺) were used. […] The human Neutrophil cells were purchased from HemaCare and cultured according to the manufacturer's protocol. First, both cell lines were harvested and washed once using DPBS supplemented with 2% FBS (2% DPBS-FBS). For each sample, 0.5×10⁶ cells were stained with antibody on ice for 60 min. In this experiment, 3G8 monoclonal antibody was used as a positive control. This antibody binds to both CD16a and CD16b. Following washing three times, the secondary antibody, anti-Histag antibody FITC labeled, was added. After washing, the samples were run on Cytoflex using FL2 channel.
In this experiment, NK92 cells (CD16a⁺), neutrophils (CD16b⁺), and B cells (CD32b⁺) were used as cell controls. 3G8 (anti-CD16a/b) and AT10 (anti-CD32a/b) mAbs were used as antibody controls.

Experiment [13] addresses T8, biotinylated CD32b (UniProt P31994 46-217, biotinylated).
T8 construct: also called CD32b antigen
T8 sequence (looked up): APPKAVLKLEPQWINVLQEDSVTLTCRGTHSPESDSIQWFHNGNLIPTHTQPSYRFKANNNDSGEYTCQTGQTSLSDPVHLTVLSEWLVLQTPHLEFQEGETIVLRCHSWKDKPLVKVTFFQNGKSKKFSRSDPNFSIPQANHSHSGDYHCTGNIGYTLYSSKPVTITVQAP
Kind of experiment: ELISA, biotinylated antigen on streptavidin plate. As to the method:
The purified VHHs were subjected to functional analysis using ELISA and flow cytometry. For ELISA, 50 μL of biotinylated CD16a, CD16b-NA1, CD16b-NA2, and CD32b were added to the streptavidin-coated plate and incubated for 45 min at RT. Following washing, the 100 μL of 100 nM purified VHHs were added and incubated at RT for 1 h. Next, 100 μL anti-HA tag HRP conjugated secondary antibody was added. Finally, the substrate was added for color development, and the plate was read using OD of 450 nm.
CD32b and skim milk were also used as antigen controls. 3G8 and eBioCB16, which are anti-CD16a/b mAbs were used as antibody controls. […] CD32b is a receptor that is expressed on B cells and responsible for inhibiting B cell activation. One of the disadvantages of mAb-based therapies is the binding of their Fc region to CD32b leading to the diminished activity of humoral immunity.

Experiment [14] concerns the target T9, Biotinylated Human Fc gamma RIIIA/CD16a (F176) Protein, Avitag, His Tag (Acrobiosystems CDA-H82E8) (human, UniProt P08637 17-208, biotinylated (Avitag)).
T9 construct: also called biotinylated CD16a; CD16a antigen
Kind of experiment: BLI (Octet), biotinylated CD16a on streptavidin sensor, VHH 1.875-60 nM. The protocol: (§5) An Octet® Streptavidin (SA) Biosensor was soaked for at least 10 min in DPBS supplemented with 0.1% Casein, biotinylated CD16a, CD16b-NA1, CD16b-NA2, and HER2 antigens were loaded onto the streptavidin (SA) biosensor until 1 nm shift was reached. Next, the sensor was dipped into the washing buffer (DPBS+0.05% Tween 20+0.1% Casein) for 2 min to reach the baseline. […] Then, in the dissociation step, sensors were dipped into the washing buffer for 5 min to acquire data (Table 5). The data were then analyzed using Octet Data Analysis HT 11.1 software. The sensorgrams were subtracted from the reference and fitted into 1:1 binding model for data analysis. Finally, the affinity and kinetics were analyzed using “Association and Dissociation”.

Experiment [15] deals with T10, Biotinylated Human Fc gamma RIIIB/CD16b (NA1) Protein, His, Avitag (Acrobiosystems CDB-H82E4) (human, UniProt O75015 17-200, biotinylated (Avitag)).
T10 construct: NA1 allele; also called CD16b-NAI
T10 sequence (O75015 other isoform, or with tags, fused parts or gaps limits assumed): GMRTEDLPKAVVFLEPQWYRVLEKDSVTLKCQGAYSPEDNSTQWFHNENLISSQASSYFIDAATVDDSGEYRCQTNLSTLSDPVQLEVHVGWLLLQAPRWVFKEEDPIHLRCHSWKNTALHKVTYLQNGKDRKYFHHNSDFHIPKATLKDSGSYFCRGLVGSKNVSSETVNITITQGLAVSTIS
Kind of experiment: BLI (Octet), biotinylated CD16b-NA1 on streptavidin sensor, VHH 1.875-60 nM. The protocol: as §5

Where two headings read alike, the source gives them in different places.

T9 sequence (P08637 17-208 limits assumed): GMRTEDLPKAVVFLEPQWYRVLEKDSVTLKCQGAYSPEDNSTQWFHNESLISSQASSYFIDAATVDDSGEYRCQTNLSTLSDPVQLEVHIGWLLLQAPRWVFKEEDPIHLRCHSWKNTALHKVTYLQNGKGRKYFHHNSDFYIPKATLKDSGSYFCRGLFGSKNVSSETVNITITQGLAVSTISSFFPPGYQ
T7 sequence (O75015 17-200): as the sequence (O75015 other isoform, or with tags, fused parts or gaps limits assumed) above, with R20S, D66N, V90I counted along it

B1: C9 (VHH)
VHH: QVQLQESGGGLVQAGGSLRLSCAASGRTVSRYSMGWFRQAPGKEREFVAAIAWFGGWPYYADSVKGRFTISRDNAKNTVYLQMNSLKPEDTAVYYCAARQWARTWDYWGQGTQVTVSS
notes: also called C9 anti-HER2 VHH
As for B1, the binding result in [1] is “binds”; in [2], “no binding (tested: extract, conc. not given)”; in experiment [3], “no binding (tested: extract, conc. not given)”; in experiment [4], “no binding (tested: extract, conc. not given)”.

B2: A1 anti-HER2 VHH (VHH)
VHH: QVQLQESGGGLVQPGGSLRLSCAASGHTLSTYVVAWFRQAPGKERESVAAIGWSSRSPYYPDSVKGRFTISEDNTKNTVYLQMNSLKPDDTAVYYCAADSYPRRWDRESDFGSWGQGTQVTVSS
notes: Llama VHH expressed in WK6 E. coli with C-terminal c-myc and His tags; also called A1 clone
Molecule B2 returned a dissociation constant (Kd) in experiment [5] of 1.3 nM. Further, in [6], the “FITC+ (%)” value came out at 98.8%, the “FITC- (%)” value was 1.23% and the “Mean (MFI)” value was 97000. In experiment [7], the “FITC+ (%)” value was found to be 94.1%, the “FITC- (%)” value stood at 5.78% and the “Mean (MFI)” value was 101000. The binding result in [2] is listed as “no binding (tested: extract, conc. not given)”. In [3], the binding result is “no binding (tested: extract, conc. not given)”. Also, the binding result in experiment [4] is “no binding (tested: extract, conc. not given)”. In experiment [8], this molecule came in with an equilibrium dissociation constant (Kd) of 1.32 nM, a koff of 0.000411 s⁻¹ and a kon of 309000 M⁻¹ s⁻¹.

B3: E5 anti-HER2 VHH (VHH)
VHH: QVQLQESGGGLVQAGGSLRLDCAASGRTLSSYVVGWFRQAPGKEREVVAAIGWSRTSTFYTDSVKGRFTISRDNTENTVYLQMNSLKPGDTAVYYCAADSSPRRWDRESDFGSWGQGTQVTVSS
notes: also called E5 clone
Molecule B3 displayed a Kd in experiment [5] of 0.724 nM. Further, the “FITC+ (%)” value is 98.4% in [6] and 93.3% in experiment [7]. Further, the “FITC- (%)” value in experiment [6] turned out to be 1.59%; in experiment [7], 6.45%. For the same molecule, the results for the “Mean (MFI)” value in [6] and in [7] were 102000 and 106000, respectively. Moreover, the binding result in [2] is recorded as “no binding (tested: extract, conc. not given)”; in experiment [3], “no binding (tested: extract, conc. not given)”; in experiment [4], “no binding (tested: extract, conc. not given)”. In [9], the off-rate (koff) was 0.000702 s⁻¹. Moreover, the on-rate constant (kon) in experiment [9] is 969000 M⁻¹ s⁻¹. Moreover, the concentration for a half-maximal effect (EC50 (read off the curve)) was around 1 nM in [10] and around 0.3 nM in experiment [11].

B4: E3 anti-CD16a VHH (VHH)
VHH: QVQLQESGGGLVQAGGSARLSCAASGRTFRLYRMGWFRQAPGKEREFVASIKMIDGSSLFGDPVKGRFTISRDNTKFMVYLQMNSLKPEDTAVYYCASVSRNTGSWDSWGQGTQVTVSSYPYDVPDYAHHHHHHHH
notes: also called E3 clone; E3 VHH
B4: in experiment [12], the binding result was “no binding”. In addition, the binding result in [13] was “no binding (tested: 100 nM)”. Also, in experiment [14], the Kd came to 0.579 nM, the koff stood at 0.000294 s⁻¹ and the on-rate constant (kon) amounted to 505000 M⁻¹ s⁻¹. Further, in [15], binding was characterised by a dissociation constant (Kd) of 31.7 nM, the koff came out at 0.0131 s⁻¹ and the kon stood at 412000 M⁻¹ s⁻¹.

B5: A3 (VHH)
VHH: QVQLQESGGGLVQAGGSLRISCAASGRTSDLFPVGWFRQAPGKEREIVAAIRWSGGVIGYGDPVKGRFTISTDNAKNTVYLQMNSLKPEDTAVYYCAAGPRESTVTWNYWGQGTHVTVSS
notes: not the anti-CD16a clone A3; also called A3 anti-HER2 VHH
Regarding B5, the binding result in experiment [1] is given as “binds”; in [2], “no binding (tested: extract, conc. not given)”; in experiment [3], “no binding (tested: extract, conc. not given)”; in experiment [4], “no binding (tested: extract, conc. not given)”.

One may read the Kd as the concentration at which binding is half-saturated. As a reminder, the koff is the rate constant with which the complex falls apart. Read a high koff as a short-lived complex. What is called kon is the second-order rate constant of association. High values mean fast association, low ones slow association. In general, EC50 (read off the curve) refers to the concentration needed to bring the measured effect to its halfway point.
